Biological target: T1, His6-tagged human PSF (human, UniProt P23246 1-707)
T1 sequence (looked up): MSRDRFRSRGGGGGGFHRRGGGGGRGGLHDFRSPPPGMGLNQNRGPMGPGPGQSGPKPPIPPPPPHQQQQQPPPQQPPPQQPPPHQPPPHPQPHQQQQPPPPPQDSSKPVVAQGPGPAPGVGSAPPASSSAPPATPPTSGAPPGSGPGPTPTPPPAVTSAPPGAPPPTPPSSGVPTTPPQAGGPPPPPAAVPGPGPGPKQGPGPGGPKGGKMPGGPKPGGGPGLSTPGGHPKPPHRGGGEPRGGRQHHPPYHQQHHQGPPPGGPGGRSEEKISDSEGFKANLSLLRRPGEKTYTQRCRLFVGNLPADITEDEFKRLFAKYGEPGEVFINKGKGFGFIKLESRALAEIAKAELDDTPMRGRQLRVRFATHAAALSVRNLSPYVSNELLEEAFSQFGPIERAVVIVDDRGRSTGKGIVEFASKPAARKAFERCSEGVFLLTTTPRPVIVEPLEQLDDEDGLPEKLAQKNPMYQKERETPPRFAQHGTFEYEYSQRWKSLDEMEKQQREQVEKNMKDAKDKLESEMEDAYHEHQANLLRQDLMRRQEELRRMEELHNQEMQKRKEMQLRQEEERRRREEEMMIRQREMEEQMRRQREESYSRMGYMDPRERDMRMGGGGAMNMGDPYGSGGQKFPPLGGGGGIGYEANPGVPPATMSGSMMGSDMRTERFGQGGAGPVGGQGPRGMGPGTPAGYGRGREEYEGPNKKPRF
Assay: pull-down

B1: Human RAD51 without His6 tag (natural protein, UniProt Q06609 1-339, looked up)
chain: MAMQMQLEANADTSVEEESFGPQPISRLEQCGINANDVKKLEEAGFHTVEAVAYAPKKELINIKGISEAKADKILAEAAKLVPMGFTTATEFHQRRSEIIQITTGSKELDKLLQGGIETGSITEMFGEFRTGKTQICHTLAVTCQLPIDRGGGEGKAMYIDTEGTFRPERLLAVAERYGLSGSDVLDNVAYARAFNTDHQTQLLYQASAMMVESRYALLIVDSATALYRTDYSGRGELSARQMHLARFLRMLLRLADEFGVAVVITNQVVAQVDGAAMFAADPKKPIGGNIIAHASTTRLYLRKGRGETRICKIYDSPCLPEAEAMFAINADGVGDAKD
stoichiometry N: ~1 PSF:RAD51

Source: publication PMC2715225 (Nucleic Acids Research, 2009)
